Results published in US20240050517A1 (University of Washington, published 2024).
Positions of bridges follow the written chain, without caps; N, C: chain ends. Non-standard residues stand in square brackets, D forms with d.

T1: synthetic PSMα1 peptide (phenol soluble modulin α1) (Staphylococcus aureus, N-terminal formylation (fMet 1))
T1 construct: Synthetic peptide from Ontores Biotechnologies
T1 peptide: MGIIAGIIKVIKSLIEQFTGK


Columns and labels:
[1] = target: T1, synthetic PSMα1 peptide (phenol soluble …); test: BLI (BLItz), AP90 (180 µM) immobilized on APS tip, PSMα1 (50 µM) in solution, samples near the end of the aggregation lag phase (α-sheet-rich, about 48 h); lower end of the range; PSMα1 samples near the end of the aggregation lag phase
Procedure: (§1) All biolayer interferometry (BLI) experiments were performed on a BLItz™ biosensor system (ForteBio) using aminopropylsilane (APS) sensors. Sensors were hydrated in ddH₂O+22 μM ThT for 10 minutes prior to use. Designed peptides (dissolved in ddH₂O+22 μM ThT) were loaded onto the APS tip, a baseline was established in ddH₂O+22 μM ThT, and then the association of PSMα1 (prepped with DMSO+ddH₂O+22 μM ThT, as in the fibrillization assay at various pre-incubation times) was monitored over a period of three minutes. Dissociation was subsequently measured in ddH₂O+22 μM ThT, and the equilibrium dissociation constant (KD) was calculated using the BLItz™ analysis software (ForteBio).

[2] = target: T1, synthetic PSMα1 peptide (phenol soluble …); test: BLI (BLItz), AP90 immobilized on APS tip, PSMα1 (50 µM) pre-incubated 146 h (transition region between α-sheet and β-sheet)
Procedure: as §1

[3] = target: T1, synthetic PSMα1 peptide (phenol soluble …); test: cell-based or functional assay

Binder | Kd [1] [nM] | drop in binding affinity against α-sheet-rich PSMα1 (end of lag phase) [2] [fold] | inhibition of PSMα1 amyloid formation (ThT fluorescence), water + <1% DMSO, 30 µM PSMα1, 1:4 molar ratio PSMα1:AP90 [3] [%] | inhibition of PSMα1 fibril formation (ThT fluorescence), LB medium + <1% DMSO, 1:4 molar ratio PSMα1:AP90 [3] [%] | inhibition of PSMα1 amyloid formation (ThT fluorescence), water + <1% DMSO, 30 µM PSMα1, 1:3 molar ratio PSMα1:AP407 [3] [%]
Ac-RGE[dM]N[dL]S[dW]MNEYSGW[dT]M[dN]L[dK]MGR-NH2 (designed binder, SMILES CSCC[C@H](NC(=O)[C@@H](CCCCN)NC(=O)[C@H](CC(C)C)NC(=O)[C@@H](CC(N)=O)NC(=O)[C@H](CCSC)NC(=O)[C@H](NC(=O)[C@H](Cc1c[nH]c2ccccc12)NC(=O)CNC(=O)[C@H](CO)NC(=O)[C@H](Cc1ccc(O)cc1)NC(=O)[C@H](CCC(=O)O)NC(=O)[C@H](CC(N)=O)NC(=O)[C@H](CCSC)NC(=O)[C@@H](Cc1c[nH]c2ccccc12)NC(=O)[C@H](CO)NC(=O)[C@@H](CC(C)C)NC(=O)[C@H](CC(N)=O)NC(=O)[C@@H](CCSC)NC(=O)[C@H](CCC(=O)O)NC(=O)CNC(=O)[C@H](CCCNC(=N)N)NC(C)=O)[C@H](C)O)C(=O)NCC(=O)N[C@@H](CCCNC(=N)N)C(N)=O, Designed α-sheet single-turn hairpin peptide with alternating L/D residues in the strands; Made by solid phase synthesis; In the BLI assay it was loaded on an aminopropylsilane (APS) sensor tip at 180 µM; also called α1) [AP90 (Alternating Peptide #90)] | 1000 to 1500 | ~100 | 81 | 73 | 
Ac-RGE[dM]N[dL]C[dW]MNEYSGW[dC]M[dN]L[dK]MGR-NH2 (designed binder, disulfide 7-16; SMILES CSCC[C@H](NC(=O)[C@@H](CCCCN)NC(=O)[C@H](CC(C)C)NC(=O)[C@@H](CC(N)=O)NC(=O)[C@H](CCSC)NC(=O)[C@H]1CSSC[C@H](NC(=O)[C@@H](CC(C)C)NC(=O)[C@H](CC(N)=O)NC(=O)[C@@H](CCSC)NC(=O)[C@H](CCC(=O)O)NC(=O)CNC(=O)[C@H](CCCNC(=N)N)NC(C)=O)C(=O)N[C@H](Cc2c[nH]c3ccccc23)C(=O)N[C@@H](CCSC)C(=O)N[C@@H](CC(N)=O)C(=O)N[C@@H](CCC(=O)O)C(=O)N[C@@H](Cc2ccc(O)cc2)C(=O)N[C@@H](CO)C(=O)NCC(=O)N[C@@H](Cc2c[nH]c3ccccc23)C(=O)N1)C(=O)NCC(=O)N[C@@H](CCCNC(=N)N)C(N)=O) [AP407] |  |  |  |  | 69
